This is an account of results in patent US8663616B2, “Enzymatic peracid generation for use in oral care products” (E I du Pont de Nemours and Company, priority 2010, dated 2014).

Experiment [1] is described as follows: Peracetic acid from C277S CXH fusions exposed to hydroxyapatite discs (Example 9). Conditions: no enzyme control subtracted; for Peracetic acid (ppm) Exposed to Hydroxyapatite, Disc: disc-bound enzyme, 100 mM triacetin, 100 mM H2O2, 30 min, 37° C.; for Peracetic acid (ppm) Exposed to Hydroxyapatite, Supernatant: unbound enzyme in supernatant after 10 μM enzyme on disc.

The nature of experiment [2]: Peracetic acid generated in solution by C277S CXH fusions (Example 9). The following applies: 0.5 μM enzyme, sarkosyl buffer, 100 mM triacetin, 100 mM H2O2, pH 7.2, 10 min, 37° C.
A short description of experiment [3]: Peracetic acid generation from hydroxyapatite bound CE-7 perhydrolase fusions (Example 8). It is filed as biochemical. Conditions: hydroxyapatite particles exposed to 10 μM enzyme, washed; 100 mM triacetin, 100 mM H2O2, 30 min, 37° C.; no enzyme 30-118.8. The protocol: (§1) The detection of peracetic acid followed the method described in Pinkernell et. al. (Analyst, 1997, 122, 567) using colorimetric detection of 2,2′-azino-bis(3-ethylbenzothiazoline(-6-sulfonate (ABTS) oxidation by peracetic acid. Following the formation of peracetic acid with the addition of triacetin and hydrogen peroxide, 90 μL of solution was added to 10 μL of 0.1 M H3PO4 in a well plate. 50 μL of 1 M acetic acid, 50 μL of 0.5 g/L ABTS and 50 μL of 0.002 g/L of KI was added. The solution was allowed to develop for 5 min. The absorbance of the solution was measured at 405 nm using a microplate reader. The peracetic acid concentration was calculated based on a standard curve developed simultaneously using peracetic acid reagent solution.
To assess binding of these constructs to hydroxyapatite, 33 mg of hydroxyapatite particles (Macro-prep Ceramic Hydroxyapatite TYPE I, 80 μm size BioRad, Hercules, Calif.), were washed with 10 mM phosphate buffer at pH 7.2. After removing the supernatant, enzyme stock solution was added to the hydroxyapatite dispersion to a final concentration of 10 μM and incubated for 30 min in a microcentrifuge tube with gentle agitation. Each sample was centrifuged for 1 min at 10000 rpm. The supernatant was removed and additional buffer was added. The particles were resuspended and transferred to a new tube. The process was repeated two additional times. The hydroxyapatite bound enzyme activity was measured by adding a 500 μl solution containing 100 mM triacetin, 100 mM H2O2 in 100 mM phosphate buffer, pH 7.2. The solution was incubated for 30 min, at 37° C. An aliquot was removed and mixed with H3PO4 and properly diluted for detection via ABTS oxidation as described in Example 7. The experiments were performed at different day with no enzyme as control for each experiment.

Experiment [4] can be described thus: Peracetic acid generated in solution by CE-7 perhydrolase fusions (Example 8). The class given is biochemical. The following applies: 0.5 μM enzyme, 100 mM triacetin, 100 mM H2O2, pH 7.2, 10 min, 37° C.; no enzyme 378.9. The protocol: as §1
Perhydrolase enzymes listed in Table 6 were assessed for solution activities. The method to measure the perhydrolase in solution activity was described in Example 7 by making a 500 μL solution containing 0.5 μM of enzyme, 100 mM triacetin, 100 mM H2O2 in 100 mM phosphate buffer, pH 7.2. The solution was mixed and incubated for 10 min at 37° C. A 10 μL aliquot was removed and diluted for detection as described in Example 7. Peracetic acid concentration was determined using a standard curve generated with a stock solution of peracetic acid (Aldrich). The experiment was also performed with no enzyme present as a control.

B1: EZ-21: C277S-EPEPE-link1-EPEPE-CXHG2-H6, SEQ ID NO: 445 (protein)
chain: MAFFDLPLEELKKYRPERYEEKDFDEFWEETLAESEKFPLDPVFERMESHLKTVEAYDVTFSGYRGQRIKGWLLVPKLEEEKLPCVVQYIGYNGGRGFPHDWLFWPSMGYICFVMDTRGQGSGWLKGDTPDYPEGPVDPQYPGFMTRGILDPRTYYYRRVFTDAVRAVEAAASFPQVDQERIVIAGGSQGGGIALAVSALSKKAKALLCDVPFLCHFRRAVQLVDTHPYAEITNFLKTHRDKEEIVFRTLSYFDGVNFAARAKIPALFSVGLMDNISPPSTVFAAYNYYAGPKEIRIYPYNNHEGGGSFQAVEQVKFLKKLFEKGEPEPEGPGSGGAGSPGSAGGPGSEPEPEPLWRRITKRKLVRPVATLMWYWFTSKRHHHHHH
B1: in experiment [1], the “Peracetic acid (ppm) Exposed to Hydroxyapatite, Disc” value (“Peracetic acid (ppm) Exposed … Disc” below) was 3109 ppm and the “Peracetic acid (ppm) Exposed to Hydroxyapatite, Supernatant” value (“Peracetic acid … Supernatant” for short) came to 1581 ppm. Further, the “Peracetic acid (ppm) In Solution” value in experiment [2] came to 2764 ppm.

B2: EZ-34: Lla-link1-HC263-H6, SEQ ID NO: 458 (protein)
chain: MTKINNWQDYQGSSLKPEDFDKFWDEKINLVSNHQFEFELIEKNLSSKVVNFYHLWFTAIDGAKIHAQLIVPKNLKEKYPAILQFHGYHCDSGDWVDKIGIVAEGNVVLALDCRGQGGLSQDNIQTMGMTMKGLIVRGIDEGYENLYYVRQFMDLITATKILSEFDFVDETNISAQGASQGGALAVACAALSPLIKKVTATYPFLSDYRKAYELGAEESAFEELPYWFQFKDPLHLREDWFFNQLEYIDIQNLAPRIKAEVIWILGGKDTVVPPITQMAAYNKIQSKKSLYVLPEYGHEYLPKISDWLRENQGPGSGGAGSPGSAGGPGSPSAQSQLPDKHSGLHERAPQRYGPEPEPEPEPIPEPPKEAPVVIEKPKPKPKPKPKPPAHDHKNQKETHQRHAAGSGGGGSPHHHHHH
As for B2, in experiment [3], the “Peracetic acid (ppm)” value was 242.2 ppm. In experiment [4], the “PAA (ppm)” value was found to be 786 ppm.

B3: EZ-28: Bpu-link1-HC263-H6, SEQ ID NO: 452 (protein)
chain: MQLFDLSLEELKKYKPKKTARPDFSDFWKKSLEELRQVEAEPTLESYDYPVKGVKVYRLTYQSFGHSKIEGFYAVPDQTGPHPALVRFHGYNASYDGGIHDIVNWALHGYATFGMLVRGQGGSEDTSVTPGGHALGWMTKGILSKDTYYYRGVYLDAVRALEVIQSFPEVDEHRIGVIGGSQGGALAIAAAALSDIPKVVVADYPYLSNFERAVDVALEQPYLEINSYFRRNSDPKVEEKAFETLSYFDLINLAGWVKQPTLMAIGLIDKITPPSTVFAAYNHLETDKDLKVYRYFGHEFIPAFQTEKLSFLQKHLLLSTGPGSGGAGSPGSAGGPGSPSAQSQLPDKHSGLHERAPQRYGPEPEPEPEPIPEPPKEAPVVIEKPKPKPKPKPKPPAHDHKNQKETHQRHAAGSGGGGSPHHHHHH
On to B3, for which, in experiment [3], the “Peracetic acid (ppm)” value stood at 534.2 ppm. For the same molecule, the “PAA (ppm)” value in experiment [4] was 2512.7 ppm.

B4: EZ-35: Lla-link1-DenP308-H6, SEQ ID NO: 459 (protein)
chain: MTKINNWQDYQGSSLKPEDFDKFWDEKINLVSNHQFEFELIEKNLSSKVVNFYHLWFTAIDGAKIHAQLIVPKNLKEKYPAILQFHGYHCDSGDWVDKIGIVAEGNVVLALDCRGQGGLSQDNIQTMGMTMKGLIVRGIDEGYENLYYVRQFMDLITATKILSEFDFVDETNISAQGASQGGALAVACAALSPLIKKVTATYPFLSDYRKAYELGAEESAFEELPYWFQFKDPLHLREDWFFNQLEYIDIQNLAPRIKAEVIWILGGKDTVVPPITQMAAYNKIQSKKSLYVLPEYGHEYLPKISDWLRENQGPGSGGAGSPGSAGGPGSDPTKPPRTPTANTSRPHHNFGSGGGGSPHHHHH
Regarding B4, the “Peracetic acid (ppm)” value in experiment [3] is on record as 260 ppm. In addition, the “PAA (ppm)” value in experiment [4] turned out to be 998 ppm.

B5: EZ-33: Lla-link1-H6, SEQ ID NO: 457 (protein)
chain: MTKINNWQDYQGSSLKPEDFDKFWDEKINLVSNHQFEFELIEKNLSSKVVNFYHLWFTAIDGAKIHAQLIVPKNLKEKYPAILQFHGYHCDSGDWVDKIGIVAEGNVVLALDCRGQGGLSQDNIQTMGMTMKGLIVRGIDEGYENLYYVRQFMDLITATKILSEFDFVDETNISAQGASQGGALAVACAALSPLIKKVTATYPFLSDYRKAYELGAEESAFEELPYWFQFKDPLHLREDWFFNQLEYIDIQNLAPRIKAEVIWILGGKDTVVPPITQMAAYNKIQSKKSLYVLPEYGHEYLPKISDWLRENQGPGSGGAGSPGSAGGPGSHHHHHH
For the molecule B5, in experiment [3], the “Peracetic acid (ppm)” value was determined as 359.1 ppm. Also, the “PAA (ppm)” value in experiment [4] amounted to 1062.5 ppm.

B6: EZ-19: C277S-EPEPE-link1-EPEPE-CXH201-H6, SEQ ID NO: 443 (protein)
chain: MAFFDLPLEELKKYRPERYEEKDFDEFWEETLAESEKFPLDPVFERMESHLKTVEAYDVTFSGYRGQRIKGWLLVPKLEEEKLPCVVQYIGYNGGRGFPHDWLFWPSMGYICFVMDTRGQGSGWLKGDTPDYPEGPVDPQYPGFMTRGILDPRTYYYRRVFTDAVRAVEAAASFPQVDQERIVIAGGSQGGGIALAVSALSKKAKALLCDVPFLCHFRRAVQLVDTHPYAEITNFLKTHRDKEEIVFRTLSYFDGVNFAARAKIPALFSVGLMDNISPPSTVFAAYNYYAGPKEIRIYPYNNHEGGGSFQAVEQVKFLKKLFEKGEPEPEGPGSGGAGSPGSAGGPGSEPEPEWKTKKILLSRTRRIMRQVVRSVMHKIWHHHHHH
In the case of B6, in experiment [1], the “Peracetic acid (ppm) Exposed … Disc” value came out at 3136 ppm and the “Peracetic acid … Supernatant” value was 1665 ppm. Besides, the “Peracetic acid (ppm) In Solution” value in experiment [2] came to 4088 ppm.

B7: EZ-20: C277S-EPEPEPEPEPE-link1-CXH201-H6, SEQ ID NO: 444 (protein)
chain: MAFFDLPLEELKKYRPERYEEKDFDEFWEETLAESEKFPLDPVFERMESHLKTVEAYDVTFSGYRGQRIKGWLLVPKLEEEKLPCVVQYIGYNGGRGFPHDWLFWPSMGYICFVMDTRGQGSGWLKGDTPDYPEGPVDPQYPGFMTRGILDPRTYYYRRVFTDAVRAVEAAASFPQVDQERIVIAGGSQGGGIALAVSALSKKAKALLCDVPFLCHFRRAVQLVDTHPYAEITNFLKTHRDKEEIVFRTLSYFDGVNFAARAKIPALFSVGLMDNISPPSTVFAAYNYYAGPKEIRIYPYNNHEGGGSFQAVEQVKFLKKLFEKGEPEPEPEPEPEGPGSGGAGSPGSAGGPGSWKTKKILLSRTRRIMRQVVRSVMHKIWHHHHHH
With B7, in experiment [1], the “Peracetic acid (ppm) Exposed … Disc” value is 2795 ppm and the “Peracetic acid … Supernatant” value is on record as 1229 ppm. The “Peracetic acid (ppm) In Solution” value in experiment [2] is 2265 ppm.

B8: EZ-27: Bpu-link1-H6, SEQ ID NO: 451 (protein)
chain: MQLFDLSLEELKKYKPKKTARPDFSDFWKKSLEELRQVEAEPTLESYDYPVKGVKVYRLTYQSFGHSKIEGFYAVPDQTGPHPALVRFHGYNASYDGGIHDIVNWALHGYATFGMLVRGQGGSEDTSVTPGGHALGWMTKGILSKDTYYYRGVYLDAVRALEVIQSFPEVDEHRIGVIGGSQGGALAIAAAALSDIPKVVVADYPYLSNFERAVDVALEQPYLEINSYFRRNSDPKVEEKAFETLSYFDLINLAGWVKQPTLMAIGLIDKITPPSTVFAAYNHLETDKDLKVYRYFGHEFIPAFQTEKLSFLQKHLLLSTGPGSGGAGSPGSAGGPGSHHHHHH
Consider B8, for which, in experiment [3], the “Peracetic acid (ppm)” value was found to be 634.9 ppm. For the same molecule, in experiment [4], the “PAA (ppm)” value was 2332.9 ppm.
